These results are taken from patent US20220380782A1.

Read-outs that look alike come from different tables or passages of the source.

For test [1], the target named is mAID-EGFP-NLS (arabidopsis).
In test [2] the target is mAID-EGFP-NLS (arabidopsis). The source holds these as a separate data set.
Test [3] concerns the target RAD21-mAID-Clover (human; arabidopsis) (UniProt O60216).
The target of test [4] is mAID-EGFP-NLS (arabidopsis). This is another data set of the same source.

OsTIR1(WT) (receptor), sequence (chain): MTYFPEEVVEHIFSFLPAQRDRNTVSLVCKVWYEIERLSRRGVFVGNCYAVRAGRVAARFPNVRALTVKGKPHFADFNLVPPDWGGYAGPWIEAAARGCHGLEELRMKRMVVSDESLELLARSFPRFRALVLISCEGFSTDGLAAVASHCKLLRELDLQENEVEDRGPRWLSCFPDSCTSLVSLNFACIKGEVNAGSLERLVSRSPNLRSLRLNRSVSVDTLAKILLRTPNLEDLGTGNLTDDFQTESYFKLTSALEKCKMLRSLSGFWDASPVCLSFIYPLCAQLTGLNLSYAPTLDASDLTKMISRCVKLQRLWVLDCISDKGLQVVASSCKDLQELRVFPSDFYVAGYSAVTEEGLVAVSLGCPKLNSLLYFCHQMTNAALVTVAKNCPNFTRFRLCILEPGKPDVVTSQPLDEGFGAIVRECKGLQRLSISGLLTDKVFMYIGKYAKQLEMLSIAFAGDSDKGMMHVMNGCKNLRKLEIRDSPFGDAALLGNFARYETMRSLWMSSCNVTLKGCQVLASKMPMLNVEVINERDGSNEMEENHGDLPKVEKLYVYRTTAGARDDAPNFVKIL
RAD21-mAID-Clover (human; arabidopsis), sequence (O60216 other isoform, or with tags, fused parts or gaps): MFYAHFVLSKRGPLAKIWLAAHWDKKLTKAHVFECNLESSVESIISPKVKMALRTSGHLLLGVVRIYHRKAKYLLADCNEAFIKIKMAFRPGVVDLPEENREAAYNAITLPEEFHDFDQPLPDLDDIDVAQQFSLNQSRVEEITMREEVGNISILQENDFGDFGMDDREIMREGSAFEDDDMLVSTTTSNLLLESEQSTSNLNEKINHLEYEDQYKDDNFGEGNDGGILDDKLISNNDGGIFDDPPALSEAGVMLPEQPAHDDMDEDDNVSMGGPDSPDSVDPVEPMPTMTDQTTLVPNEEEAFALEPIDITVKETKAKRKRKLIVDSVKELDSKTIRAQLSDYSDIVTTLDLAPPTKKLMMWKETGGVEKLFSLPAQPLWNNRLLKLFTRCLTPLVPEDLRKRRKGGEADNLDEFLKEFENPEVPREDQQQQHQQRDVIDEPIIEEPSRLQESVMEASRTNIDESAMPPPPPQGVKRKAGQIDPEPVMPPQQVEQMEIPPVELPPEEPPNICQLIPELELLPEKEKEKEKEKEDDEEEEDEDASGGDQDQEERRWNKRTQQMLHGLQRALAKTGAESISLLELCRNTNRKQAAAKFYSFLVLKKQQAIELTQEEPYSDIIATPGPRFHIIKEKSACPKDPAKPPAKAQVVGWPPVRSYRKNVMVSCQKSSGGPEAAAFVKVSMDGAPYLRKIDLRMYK
OsTIR1(WT), sequence (chain): as the sequence (chain) above

With OsTIR1(F74G) (receptor), the half-life of the reporter after ligand addition (time course) in test [1] worked out at 62.3 min. For the same substance, in test [2], the DC 50 (concentration of 5-Ph-IAA for 50% degradation of the reporter) stood at 0.45 nM. In addition, the T1/2 of RAD21-mAC after the addition of a ligand in test [3] was 11.7 min.
In test [3], OsTIR1(WT) yielded a T1/2 of RAD21-mAC after the addition of a ligand of 26.5 min.
In test [2], OsTIR1(WT) (receptor) gave a DC 50 (concentration of IAA (auxin) for 50% degradation of the reporter) of 300 nM. Also, the half-life of the reporter after ligand addition (time course) in test [4] came to 147 min.
